From patent US20220227866A1 (VELOSBIO, published 2022)
“And” between values parts separate entries of the source, which are not always exact repeats. Identical values can stand only once.

Tests used:
human ROR1 on cells [1] = target: T1, human ROR1 on cells (human, UniProt Q01973 30-937); assay: cell-based or functional assay
[2] = target: T2, human CD3 on Jurkat cells (human, UniProt P09693 23-182; P04234 22-171; P07766 23-207); assay: flow cytometry on Jurkat cells
T2 construct: GenBank NP_000064.1, NP_000723.1, NP_000724.1
T2 sequence (P09693 23-182 limits assumed, chain 1 of 3): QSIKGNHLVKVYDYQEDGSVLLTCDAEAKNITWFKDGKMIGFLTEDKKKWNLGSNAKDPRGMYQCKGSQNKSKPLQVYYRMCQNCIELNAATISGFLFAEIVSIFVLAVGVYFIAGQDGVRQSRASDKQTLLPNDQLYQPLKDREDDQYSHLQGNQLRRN
T2 sequence (P04234 22-171 limits assumed, chain 2 of 3): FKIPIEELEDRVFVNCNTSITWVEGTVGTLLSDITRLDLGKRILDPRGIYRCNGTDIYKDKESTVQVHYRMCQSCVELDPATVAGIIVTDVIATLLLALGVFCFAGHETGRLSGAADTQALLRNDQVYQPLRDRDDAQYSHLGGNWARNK
T2 sequence (P07766 23-207 limits assumed, chain 3 of 3): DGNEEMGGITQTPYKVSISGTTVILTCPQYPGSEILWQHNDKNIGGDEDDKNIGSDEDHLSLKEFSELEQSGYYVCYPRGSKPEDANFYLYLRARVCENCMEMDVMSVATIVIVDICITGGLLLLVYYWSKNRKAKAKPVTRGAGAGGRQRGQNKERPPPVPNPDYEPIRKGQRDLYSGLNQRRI
Experimental: (§1) To quantitate CD3 binding, 2.5E5 Jurkat cells were used for each condition. A 2× stock of the cells was made by resuspending the cells to 5E6/mL by placing in 50 μL of PBS with 2% FBS. Next, the cells were diluted with an equal volume of 2× stock of the test bispecific binding molecule. The cells and antibody were co-incubated on ice for 20 min. The cells were then washed 3 times with 300 μL of FACS buffer and were resuspended in 100 μL of goat anti-human Fc-PE conjugate antibody (Invitrogen cat. #12499882) at 1:500 dilution and incubated on ice with reduced light for 20 min. The cells were then washed 3 times with 300 μL of FACS buffer and fixed with 2% paraformaldehyde for 10 min at 25° C. The cells were washed 2 times with 300 μL of FACS buffer and analyzed on a Miltenyi MACSQuant Analyzer.

[3] = target: T3, recombinant human ROR1 extracellular domain (human, UniProt Q01973 30-406); assay: ELISA, immobilised ROR1 ECD, construct titrated
T3 construct: Bought (Acro Biosystems cat. R01-H522Y); whole entry named; also called ROR1-ECD; immobilized ROR1
T3 sequence (Q01973 30-406 limits assumed): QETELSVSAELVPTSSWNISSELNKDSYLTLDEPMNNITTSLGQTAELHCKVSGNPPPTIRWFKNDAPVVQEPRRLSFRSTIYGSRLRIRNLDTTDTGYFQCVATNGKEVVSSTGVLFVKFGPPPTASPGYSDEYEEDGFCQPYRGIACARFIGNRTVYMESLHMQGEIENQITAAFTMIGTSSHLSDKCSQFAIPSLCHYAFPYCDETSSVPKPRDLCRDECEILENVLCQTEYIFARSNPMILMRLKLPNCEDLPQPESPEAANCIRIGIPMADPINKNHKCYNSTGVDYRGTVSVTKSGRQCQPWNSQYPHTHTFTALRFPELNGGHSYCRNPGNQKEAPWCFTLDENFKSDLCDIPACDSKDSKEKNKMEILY
Experimental: A 96-well Costar-3366 plate was coated with 50 μL/well of 2 μg/mL […] (Acro Biosystems cat. #R01-H522Y) in PBS overnight at 4° C. The plate was rinsed once with PBS containing 0.05% Tween 20 (PBS-T) and blocked with 100 μL/well of 5% non-fat milk in PBS (5% M-P) for 1 h at 25° C. Antibody samples were serially diluted 2-fold using 5% M-P and were incubated for 1 h at 25° C. (50 μL/well). The plate was washed three times with PBS-T and 50 μL/well anti-human kappa, HRP conjugate (Southern Biotech cat. #2060-05) diluted 10,000-fold in 5% M-P was added for 1 h at 25° C. The plate was washed three times with PBS-T, developed with 50 μL/well 1-Step Ultra TMB-ELISA (Thermo Scientific cat. #34028). The reaction was terminated by the addition of 2 N H₂SO₄ and the A450 was determined using a Spectramax plate reader.
Next, the binding of bispecific binding molecules to ROR was characterized by ELISA using recombinantly-expressed extracellular domain of RORL. ROR was immobilized on a microtiter plate, the bispecific binding molecules were titrated, and binding was quantitated with an anti-human kappa-HRP reagent. Consistent with the cell binding data, all constructs bound ROR1 in a concentration-dependent manner (FIG. 6). Moreover, monovalent ROR1 constructs 13-15 bound less tightly than all but two of the bivalent constructs.

[4] = target: T4, soluble biotinylated human ROR1 extracellular domain (human, UniProt Q01973 30-406, biotinylated with EZ-Link Sulfo-NHS-LC-Biotin at a 1:5 molar ratio); assay: ELISA, captured construct, biotinylated ROR1 titrated
T4 construct: Acro Biosystems cat; whole entry named; also called b-ROR1; soluble b-ROR1
T4 sequence (Q01973 30-406 limits assumed): as above
Experimental: To measure the binding of bispecific constructs to soluble ROR1, a 96-well Costar-3366 plate was coated with 50 μL/well of 2 μg/mL goat anti-human kappa (Southern Biotech cat. #2060-01) in PBS overnight at 4° C. The plate was rinsed once with PBS-T, blocked with 100 μL/well 5% M-P for 1 h at 25° C., rinsed once with PBS-T, and 2 μg/mL of the bispecific binding molecule was added and incubated for 1 h at 25° C. The plate was washed three times with PBS-T. Biotinylated ROR1 was diluted serially, 3-fold in 5% M-P and was incubated for 1 h at 25° C. (50 μL/well). The plate was washed three times with PBS-T. To detect the binding of b-ROR1, 50 μL/well Neutravidin-HRP (Pierce cat. #31030) diluted 1:5000 in 1% BSA-PBS was added for 1 h at 25° C. The plate was washed three times with PBS-T, then developed with 50 μL/well 1-Step Ultra TMB-ELISA (Thermo Scientific cat. #34028). The reaction was terminated by the addition of 2 N H₂SO₄ and the A450 was determined using a Spectramax plate reader.
The stronger binding observed with bivalent constructs versus monovalent constructs in cell assays and ELISAs in which the antigen is immobilized is consistent with an avidity effect. To determine if this was the case, binding to soluble monomeric ROR1 was assessed by immobilizing the bispecific binding molecules on a microtiter plate coated with goat anti-human kappa antibody and titrating biotinylated RORL. All bispecific binding molecules were active in this format (FIG. 7), and in most cases, there were no notable differences between monovalent and bivalent constructs.

human ROR1 on cells [5] = target: T1, human ROR1 on cells; assay: flow cytometry on ROR1-transfected MEC cells after 24 h incubation with the construct
[6] = target: T2, human CD3 on Jurkat cells; assay: flow cytometry on Jurkat cells (1 ug/mL construct on ice, washed, then 37 C)
Experimental: as §1
To quantitate internalization of the bispecific binding molecules, 2.5E5 Jurkat cells were co-incubated with 1 μg/mL of the bispecific binding molecule on ice for 20 min. The cells were then washed 3 times 300 μL with ice-cold FACS buffer and were resuspended in culture media and incubated at 37° C. At various times, cells were removed, washed with 300 μL ice-cold FACS buffer and processed as described above.

human ROR1 on cells [7] = target: T1, human ROR1 on cells; assay: flow cytometry on JeKo-1 cells
Experimental: ROR1 binding was quantitated using both ROR1-transfected MEC cells and JeKo-1 cells. For each condition, 2.5E5 cells were used. The cells were placed in 50 μL of PBS with 2% FBS. Next, the cells were diluted with an equal volume of 2× stock of the test bispecific binding molecule. The cells and antibody were co-incubated on ice for 20 min. The cells were then washed 3 times with 300 μL of FACS buffer and were resuspended in 100 μL of anti-human Fc-PE conjugate antibody (Invitrogen cat. #12499882) and incubated on ice with reduced light for 20 min. Subsequently, the cells were washed 3 times with 300 μL of FACS buffer and fixed with 2% paraformaldehyde for 10 min at 25° C. The cells then were washed 2 times with 300 μL of FACS buffer and analyzed on a Miltenyi MACSQuant Analyzer.
The influence of ROR expression levels on binding of the bispecific constructs was assessed by flow cytometry using JeKo-1 cells. JeKo-1 cells express lower levels of ROR (˜13,000 copies/cell) than the ROR1-transfected MEC cells (˜56,000 copies/cell). All constructs bound JeKo-1 cells (FIG. 5). […] Specifically, monovalent ROR1 constructs generally bound more weakly than the bivalent constructs (FIG. 5, Panel A, compare constructs 14 and 15 with other constructs; FIG. 5, Panel C, compare constructs 15-17 with other constructs).

[8] = target: T3, recombinant human ROR1 extracellular …; assay: ELISA, Fab titrated on immobilized human ROR1

T1 sequence (Q01973 30-937 limits assumed): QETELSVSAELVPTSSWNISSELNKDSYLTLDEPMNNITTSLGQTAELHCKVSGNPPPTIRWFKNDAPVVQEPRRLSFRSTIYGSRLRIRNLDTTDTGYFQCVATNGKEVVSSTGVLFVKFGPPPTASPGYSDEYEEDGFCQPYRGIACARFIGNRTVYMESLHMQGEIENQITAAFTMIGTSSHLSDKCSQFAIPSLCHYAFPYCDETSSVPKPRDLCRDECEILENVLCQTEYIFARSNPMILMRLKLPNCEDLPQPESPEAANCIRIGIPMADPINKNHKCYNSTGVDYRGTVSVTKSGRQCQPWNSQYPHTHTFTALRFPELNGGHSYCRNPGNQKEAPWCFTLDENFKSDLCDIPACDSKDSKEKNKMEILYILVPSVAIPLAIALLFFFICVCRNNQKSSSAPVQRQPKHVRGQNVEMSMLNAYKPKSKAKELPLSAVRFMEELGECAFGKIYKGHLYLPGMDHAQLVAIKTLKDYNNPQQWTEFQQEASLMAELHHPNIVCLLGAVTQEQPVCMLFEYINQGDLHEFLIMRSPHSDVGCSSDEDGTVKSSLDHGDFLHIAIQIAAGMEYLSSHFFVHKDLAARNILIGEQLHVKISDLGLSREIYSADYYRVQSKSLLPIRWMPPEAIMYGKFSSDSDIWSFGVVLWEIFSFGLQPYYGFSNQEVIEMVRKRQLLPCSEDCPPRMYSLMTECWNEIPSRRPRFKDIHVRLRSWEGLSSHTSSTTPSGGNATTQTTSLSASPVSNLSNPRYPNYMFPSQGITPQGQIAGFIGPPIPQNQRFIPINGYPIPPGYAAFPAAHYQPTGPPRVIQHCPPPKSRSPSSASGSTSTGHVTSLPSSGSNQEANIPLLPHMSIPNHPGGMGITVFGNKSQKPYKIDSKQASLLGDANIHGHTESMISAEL

B1: Bispecific construct 7 (bispecific antibody, human IgG1, kappa)
heavy: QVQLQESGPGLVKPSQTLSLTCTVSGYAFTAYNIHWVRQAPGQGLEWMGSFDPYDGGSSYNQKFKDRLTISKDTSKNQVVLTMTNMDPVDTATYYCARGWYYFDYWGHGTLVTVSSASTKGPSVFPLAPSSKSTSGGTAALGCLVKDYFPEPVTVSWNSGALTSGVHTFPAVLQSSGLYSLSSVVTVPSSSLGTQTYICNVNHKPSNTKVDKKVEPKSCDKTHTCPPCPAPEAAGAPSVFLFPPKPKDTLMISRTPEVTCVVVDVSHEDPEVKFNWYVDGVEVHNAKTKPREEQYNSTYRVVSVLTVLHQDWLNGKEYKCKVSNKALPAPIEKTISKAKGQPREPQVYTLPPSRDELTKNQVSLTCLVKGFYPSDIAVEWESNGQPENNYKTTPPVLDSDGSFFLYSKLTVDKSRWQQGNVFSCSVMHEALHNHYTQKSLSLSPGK
light: DIVMTQTPLSLPVTPGEPASISCRASKSISKYLAWYQQKPGQAPRLLIYSGSTLQSGIPPRFSGSGYGTDFTLTINNIESEDAAYYFCQQHDESPYTFGEGTKVEIKRTVAAPSVFIFPPSDEQLKSGTASVVCLLNNFYPREAKVQWKVDNALQSGNSQESVTEQDSKDSTYSLSSTLTLSKADYEKHKVYACEVTHQGLSSPVTKSFNRGECGGGGSGGGGSQVQLVQSGGGVVQPGRSLRLSCKASGYTFTRYTMHWVRQAPGKGLEWIGYINPSRGYTNYNQKVKDRFTISRDNSKNTLYLQMDSLRAEDTAVYYCARYYDDHYSLDYWGQGTTVTVSSGGGGSGGGGSGGGGSGGGGSDIQMTQSPSSLSASVGDRVTITCSASSSVSYMNWYQQKPGKAPKRWIYDTSKLASGVPSRFSGSGSGTDFTFTISSLQPEDIATYYCQQWSSNPFTFGQGTKLEIK
notes: ROR1 arm Ab1; valency 2/2
EC50, LDH release, Mino (human ROR1 on cells [1]): 0.97 ng/mL and 4.9 pM
EC50, LDH release, ROR1-transfected MEC (human ROR1 on cells [1]): 1.3 ng/mL and 6.5 pM
Max. LDH Release, Mino (human ROR1 on cells [1]): 50%
Max. LDH Release, ROR1-transfected MEC (human ROR1 on cells [1]): 55%
binding result [2]: binds
Kd [3]: 0.05 nM
Kd [4]: 0.118 nM
EC50 (read off the curve) (human ROR1 on cells [5]): ~5 ng/mL

B2: Bispecific construct 8 (bispecific antibody, human IgG1, kappa)
heavy: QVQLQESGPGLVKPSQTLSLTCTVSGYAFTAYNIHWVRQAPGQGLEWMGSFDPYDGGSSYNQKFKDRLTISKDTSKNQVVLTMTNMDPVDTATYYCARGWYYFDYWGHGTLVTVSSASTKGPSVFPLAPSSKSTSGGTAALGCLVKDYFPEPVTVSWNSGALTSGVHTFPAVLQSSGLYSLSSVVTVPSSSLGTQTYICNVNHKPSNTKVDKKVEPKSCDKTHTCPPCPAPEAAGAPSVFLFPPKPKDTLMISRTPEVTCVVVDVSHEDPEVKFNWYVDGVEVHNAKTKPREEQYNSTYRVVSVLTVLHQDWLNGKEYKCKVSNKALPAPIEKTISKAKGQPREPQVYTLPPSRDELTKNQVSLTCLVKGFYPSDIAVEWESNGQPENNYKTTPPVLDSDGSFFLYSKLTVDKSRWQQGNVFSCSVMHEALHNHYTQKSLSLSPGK
light: DIVMTQTPLSLPVTPGEPASISCRASKSISKYLAWYQQKPGQAPRLLIYSGSTLQSGIPPRFSGSGYGTDFTLTINNIESEDAAYYFCQQHDESPYTFGEGTKVEIKRTVAAPSVFIFPPSDEQLKSGTASVVCLLNNFYPREAKVQWKVDNALQSGNSQESVTEQDSKDSTYSLSSTLTLSKADYEKHKVYACEVTHQGLSSPVTKSFNRGECGGGGSGGGGSQVQLVQSGAEVKKPGASVKVSCKASGYTFTRYTMHWVRQAPGQGLEWMGYINPSRGYTNYNQKFKDRVTLTTDKSSSTAYMELSSLRSEDTAVYYCARYYDDHYSLDYWGQGTLVTVSSGGGGSGGGGSGGGGSGGGGSDIQMTQSPSSLSASVGDRVTITCSASSSVSYMNWYQQKPGKAPKRLIYDTSKLASGVPSRFSGSGSGTDFTLTISSLQPEDFATYYCQQWSSNPFTFGQGTKLEIK
notes: anti-CD3 scFv Ab9 (OKT3-based); ROR1 arm Ab1; valency 2/2
EC50, LDH release, A549 (human ROR1 on cells [1]): 3.39 ng/mL and 17.1 pM
EC50, LDH release, A4573 (human ROR1 on cells [1]): 1.2 ng/mL and 6.1 pM
EC50, LDH release, JeKo-1 (human ROR1 on cells [1]): 1.62 ng/mL and 8.1 pM
EC50, LDH release, Mino (human ROR1 on cells [1]): 0.95 ng/mL and 4.8 pM
EC50, LDH release, Saos-2 (human ROR1 on cells [1]): 2.92 ng/mL and 14.7 pM
Max. LDH Release, Mino (human ROR1 on cells [1]): 53%
Kd [3]: 0.098 nM
Kd [4]: 0.151 nM
binding result [6]: binds

B3: Bispecific construct 1 (bispecific antibody, human IgG1, kappa)
heavy: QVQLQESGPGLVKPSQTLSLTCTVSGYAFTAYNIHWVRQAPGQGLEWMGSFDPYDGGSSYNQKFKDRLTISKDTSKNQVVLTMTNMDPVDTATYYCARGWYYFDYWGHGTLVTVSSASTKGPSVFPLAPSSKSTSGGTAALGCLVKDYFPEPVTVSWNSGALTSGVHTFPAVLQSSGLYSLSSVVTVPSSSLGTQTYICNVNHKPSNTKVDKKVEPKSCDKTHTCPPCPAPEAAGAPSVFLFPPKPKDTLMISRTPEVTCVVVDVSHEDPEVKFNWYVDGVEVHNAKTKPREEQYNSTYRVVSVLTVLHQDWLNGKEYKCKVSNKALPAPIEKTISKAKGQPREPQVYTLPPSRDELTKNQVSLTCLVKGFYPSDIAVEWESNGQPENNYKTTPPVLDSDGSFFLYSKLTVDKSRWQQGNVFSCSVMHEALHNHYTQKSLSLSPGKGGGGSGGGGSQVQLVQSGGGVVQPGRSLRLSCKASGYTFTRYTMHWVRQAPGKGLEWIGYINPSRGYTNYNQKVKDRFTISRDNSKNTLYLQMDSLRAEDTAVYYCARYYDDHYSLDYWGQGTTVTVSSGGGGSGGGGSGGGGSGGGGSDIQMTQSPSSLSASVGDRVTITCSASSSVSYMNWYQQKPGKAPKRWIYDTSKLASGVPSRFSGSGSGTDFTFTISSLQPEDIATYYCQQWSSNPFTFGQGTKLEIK
light: DIVMTQTPLSLPVTPGEPASISCRASKSISKYLAWYQQKPGQAPRLLIYSGSTLQSGIPPRFSGSGYGTDFTLTINNIESEDAAYYFCQQHDESPYTFGEGTKVEIKRTVAAPSVFIFPPSDEQLKSGTASVVCLLNNFYPREAKVQWKVDNALQSGNSQESVTEQDSKDSTYSLSSTLTLSKADYEKHKVYACEVTHQGLSSPVTKSFNRGEC
notes: ROR1 arm Ab1; CD3 valency 2, ROR1 valency 2
EC50, LDH release, ROR1-transfected MEC (human ROR1 on cells [1]): 11 ng/mL and 55 pM
Max. LDH Release, ROR1-transfected MEC (human ROR1 on cells [1]): 42%
binding result [2]: binds
Kd [3]: 0.2 nM
Kd [4]: 0.193 nM
EC50 (read off the curve) (human ROR1 on cells [5]): ~3 ng/mL

B4: Bispecific construct 2 (bispecific antibody, human IgG1, kappa)
heavy: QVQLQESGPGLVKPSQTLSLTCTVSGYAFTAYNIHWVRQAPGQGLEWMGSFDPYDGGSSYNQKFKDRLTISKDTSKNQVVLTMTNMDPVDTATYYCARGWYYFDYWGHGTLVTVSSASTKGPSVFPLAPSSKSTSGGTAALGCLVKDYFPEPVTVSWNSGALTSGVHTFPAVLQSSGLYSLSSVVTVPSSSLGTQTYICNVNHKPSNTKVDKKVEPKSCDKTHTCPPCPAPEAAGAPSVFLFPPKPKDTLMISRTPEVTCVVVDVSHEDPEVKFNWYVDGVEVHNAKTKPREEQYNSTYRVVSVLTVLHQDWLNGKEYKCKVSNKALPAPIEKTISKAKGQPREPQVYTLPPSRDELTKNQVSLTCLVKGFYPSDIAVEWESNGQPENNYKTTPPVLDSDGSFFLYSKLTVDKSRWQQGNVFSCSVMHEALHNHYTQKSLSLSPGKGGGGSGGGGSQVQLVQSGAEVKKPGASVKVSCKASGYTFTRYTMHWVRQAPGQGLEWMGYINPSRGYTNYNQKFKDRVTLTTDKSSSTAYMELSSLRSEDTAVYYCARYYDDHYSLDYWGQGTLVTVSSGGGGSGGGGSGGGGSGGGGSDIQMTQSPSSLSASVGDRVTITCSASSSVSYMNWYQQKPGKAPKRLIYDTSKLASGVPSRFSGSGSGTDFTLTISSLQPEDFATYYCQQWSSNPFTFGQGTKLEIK
light: B3 light
notes: as for B2
EC50, LDH release, ROR1-transfected MEC (human ROR1 on cells [1]): 5 ng/mL and 25 pM
Max. LDH Release, ROR1-transfected MEC (human ROR1 on cells [1]): 50%
EC50 (read off the curve) (human ROR1 on cells [7]): ~20 ng/mL
Kd [3]: 0.041 nM
Kd [4]: 0.129 nM
binding result [6]: binds

B5: parental Ab1 Fab (WT) (Fab, V domains shown)
VH: QVQLQESGPGLVKPSQTLSLTCTVSGYAFTAYNIHWVRQAPGQGLEWMGSFDPYDGGSSYNQKFKDRLTISKDTSKNQVVLTMTNMDPVDTATYYCARGWYYFDYWGHGTLVTVSS
VL: DIVMTQTPLSLPVTPGEPASISCRASKSISKYLAWYQQKPGQAPRLLIYSGSTLQSGIPPRFSGSGYGTDFTLTINNIESEDAAYYFCQQHDESPYTFGEGTKVEIKR
notes: Tested as Fab; also called parental Fab; parental antibody
EC50 (read off the curve) [8]: ~6 nM
